Target: T1, PUF4 RNA-binding domain (Saccharomyces cerevisiae, UniProt P25339 537-888)
T1 sequence: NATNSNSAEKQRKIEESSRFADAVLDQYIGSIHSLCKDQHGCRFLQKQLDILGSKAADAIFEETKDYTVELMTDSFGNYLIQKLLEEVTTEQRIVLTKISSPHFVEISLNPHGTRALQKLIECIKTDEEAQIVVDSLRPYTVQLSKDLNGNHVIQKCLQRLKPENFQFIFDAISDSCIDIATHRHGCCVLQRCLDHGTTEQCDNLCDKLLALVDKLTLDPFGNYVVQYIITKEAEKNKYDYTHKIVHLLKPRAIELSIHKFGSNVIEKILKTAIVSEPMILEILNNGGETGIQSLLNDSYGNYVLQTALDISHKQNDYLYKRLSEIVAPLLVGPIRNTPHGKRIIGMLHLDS
Assay: Mg; RNA-MaP; 20 mM Na-HEPES pH 7.4, 30 mM KOAc, 0.75 mM MgCl2, 0.1% Tween-20, 5% glycerol, 0.1 mg/mL BSA, 2 mM DTT; 25 C; 0.0125-409.6 nM protein
Conditions: tags: N-His6-TEV cleaved; C-SNAP kept, Cy3B-labelled; label: tethered on chip by stalled RNA polymerase

B1: Ie_S1_P3E.2_K3.1_C3.2_H3.1_A3.1_F3.1_[+7TCC]_T3.2 (ssRNA)
RNA: UCUCUUCUUGUAUAUUCCAUAUCUCUU
Work on B1 yielded a Kd of 9.71 nM.

B2: Ie_S1_P3E.2_K3.1_C3.2_H3.1_A3.1_F3.1_[+7TTC]_T3.2 (ssRNA)
RNA: UCUCUUCUUGUAUAUUUCAUAUCUCUU
B2 was tested, and the Kd was 6.46 nM.

B3: Ie_S1_P3E.2_K3.1_C3.2_H3.1_A3.1_F3.1_[+7CTCTC]_T3.2 (ssRNA)
RNA: UCUCUUCUUGUAUAUCUCUCAUAUCUCUU
Work on B3 yielded a Kd of 28.5 nM.

B4: Ie_S1_P3E.2_K3.1_C3.2_H3.1_A3.1_F3.1_[+8C]_T3.2 (ssRNA)
RNA: UCUCUUCUUGUAUAUACUAUCUCUU
With B4 the Kd was 8.83 nM.

B5: Ie_S1_P3E.2_K3.1_C3.2_H3.1_A3.1_F3.1_[+8T]_T3.2 (ssRNA)
RNA: UCUCUUCUUGUAUAUAUUAUCUCUU
With B5 the Kd was 5.64 nM.

B6: Ie_S1_P3E.2_K3.1_C3.2_H3.1_A3.1_F3.1_[+8CT]_T3.2 (ssRNA)
RNA: UCUCUUCUUGUAUAUACUUAUCUCUU
For B6, the Kd was 9.04 nM.

B7: Ib_S1_P5E.1_K5.1_C5.1_H5.1_A5.1_[T6C]_[A7T]_F5.1_T5.1 (ssRNA)
RNA: UCUCUUUGUAUCUUUAUCUCUU
B7 gave a Kd of 6.01 nM.

B8: Ie_S1_P3E.2_K3.1_C3.2_H3.1_A3.1_F3.1_[+8TC]_T3.2 (ssRNA)
RNA: UCUCUUCUUGUAUAUAUCUAUCUCUU
Work on B8 yielded a Kd of 9.28 nM.

B9: Ie_S1_P3E.2_K3.1_C3.2_H3.1_A3.1_F3.1_[+8CCT]_T3.2 (ssRNA)
RNA: UCUCUUCUUGUAUAUACCUUAUCUCUU
With B9 the Kd was 8.91 nM.

B10: Ie_S1_P3E.2_K3.1_C3.2_H3.1_A3.1_F3.1_[+8CTC]_T3.2 (ssRNA)
RNA: UCUCUUCUUGUAUAUACUCUAUCUCUU
B10 was tested, and the Kd was 11.7 nM.

B11: Ie_S1_P3E.2_K3.1_C3.2_H3.1_A3.1_F3.1_[+8TCC]_T3.2 (ssRNA)
RNA: UCUCUUCUUGUAUAUAUCCUAUCUCUU
In the case of B11, the Kd is reported as 10.2 nM.

B12: Ie_S1_P3E.2_K3.1_C3.2_H3.1_A3.1_F3.1_[+8TTC]_T3.2 (ssRNA)
RNA: UCUCUUCUUGUAUAUAUUCUAUCUCUU
In the case of B12, the Kd is reported as 4.4 nM.

B13: Ie_S1_P3E.2_K3.1_C3.2_H3.1_A3.1_F3.1_[+8TTT]_T3.2 (ssRNA)
RNA: UCUCUUCUUGUAUAUAUUUUAUCUCUU
For B13, the Kd was 6.71 nM.

B14: Ie_S1_P3E.2_K3.1_C3.2_H3.1_A3.1_F3.1_[+8TCTC]_T3.2 (ssRNA)
RNA: UCUCUUCUUGUAUAUAUCUCUAUCUCUU
Work on B14 yielded a Kd of 5.63 nM.

B15: Ie_S1_P3E.2_K3.1_C3.2_H3.1_A3.1_F3.1_[+8TTCC]_T3.2 (ssRNA)
RNA: UCUCUUCUUGUAUAUAUUCCUAUCUCUU
B15 showed a Kd of 6.86 nM.

B16: Ie_S1_P3E.2_K3.1_C3.2_H3.1_A3.1_F3.1_[+8CCCT]_T3.2 (ssRNA)
RNA: UCUCUUCUUGUAUAUACCCUUAUCUCUU
B16 was tested, and the Kd was 12.3 nM.

B17: Ie_S1_P3E.2_K3.1_C3.2_H3.1_A3.1_F3.1_[+8CTCTC]_T3.2 (ssRNA)
RNA: UCUCUUCUUGUAUAUACUCUCUAUCUCUU
Binder B17 has a Kd of 11.7 nM.

B18: Ib_S1_P5E.1_K5.1_C5.1_H5.1_A5.1_[T6A]_[A7G]_F5.1_T5.1 (ssRNA)
RNA: UCUCUUUGUAUAGUUAUCUCUU
B18 was tested, and the Kd was 7.36 nM.

B19: Ie_S1_P3E.2_K3.1_C3.2_H3.1_A3.1_F3.1_[+8TCTCT]_T3.2 (ssRNA)
RNA: UCUCUUCUUGUAUAUAUCUCUUAUCUCUU
Work on B19 yielded a Kd of 8.49 nM.

B20: Ie_S1_P3E.2_K3.1_C3.2_H3.1_A3.1_F3.1_[+8TTCCT]_T3.2 (ssRNA)
RNA: UCUCUUCUUGUAUAUAUUCCUUAUCUCUU
Work on B20 yielded a Kd of 6.43 nM.

B21: Ie_S1_P3E.2_K3.1_C3.2_H3.1_A3.1_F3.1_[+8CCCTT]_T3.2 (ssRNA)
RNA: UCUCUUCUUGUAUAUACCCUUUAUCUCUU
With B21 the Kd was 9.52 nM.

B22: Ie_S1_P4E.1_K4.1_C4.1_H4.1_[+1T]_A4.1_F4.1_T4.1 (ssRNA)
RNA: UCUCUUUUGUAUAUUAUCUCUU
B22 was tested, and the Kd was 0.567 nM.

B23: Ie_S1_P4E.1_K4.1_C4.1_H4.1_[+1CT]_A4.1_F4.1_T4.1 (ssRNA)
RNA: UCUCUUUCUGUAUAUUAUCUCUU
B23 showed a Kd of 0.72 nM.

B24: Ie_S1_P4E.1_K4.1_C4.1_H4.1_[+1TC]_A4.1_F4.1_T4.1 (ssRNA)
RNA: UCUCUUUUCGUAUAUUAUCUCUU
Work on B24 yielded a Kd of 24.4 nM.

B25: Ie_S1_P4E.1_K4.1_C4.1_H4.1_[+1TT]_A4.1_F4.1_T4.1 (ssRNA)
RNA: UCUCUUUUUGUAUAUUAUCUCUU
B25 gave a Kd of 0.914 nM.

B26: Ie_S1_P4E.1_K4.1_C4.1_H4.1_[+1CCC]_A4.1_F4.1_T4.1 (ssRNA)
RNA: UCUCUUUCCCGUAUAUUAUCUCUU
In the case of B26, the Kd is reported as 22.1 nM.

B27: Ie_S1_P4E.1_K4.1_C4.1_H4.1_[+1CCT]_A4.1_F4.1_T4.1 (ssRNA)
RNA: UCUCUUUCCUGUAUAUUAUCUCUU
Work on B27 yielded a Kd of 0.583 nM.

B28: Ie_S1_P4E.1_K4.1_C4.1_H4.1_[+1TTC]_A4.1_F4.1_T4.1 (ssRNA)
RNA: UCUCUUUUUCGUAUAUUAUCUCUU
For B28, the Kd was 20.9 nM.

B29: Ie_S1_P4E.1_K4.1_C4.1_H4.1_A4.1_[+6C]_F4.1_T4.1 (ssRNA)
RNA: UCUCUUUGUAUACUUAUCUCUU
In the case of B29, the Kd is reported as 4.35 nM.

B30: Ie_S1_P4E.1_K4.1_C4.1_H4.1_[+1TCT]_A4.1_F4.1_T4.1 (ssRNA)
RNA: UCUCUUUUCUGUAUAUUAUCUCUU
For B30, the Kd was 0.546 nM.

B31: Ie_S1_P4E.1_K4.1_C4.1_H4.1_[+1CTT]_A4.1_F4.1_T4.1 (ssRNA)
RNA: UCUCUUUCUUGUAUAUUAUCUCUU
For B31, the Kd was 0.599 nM.

— paper PMC9352680, “A comprehensive thermodynamic model for RNA binding by the Saccharomyces cerevisiae Pumilio protein PUF4”
